# Key:
# HeLa Kyoto [1] = experiment: thermal stability score vs G1/S (z-score of summed log2 fold changes over temperatures); higher = more thermally stable than in G1/S
# HeLa Kyoto [2] = experiment: solubility in G1/S (NP-40 vs SDS abundance) (log2 ratio); higher = more soluble; conditions: cell cycle stage: G1/S
# HeLa Kyoto [3] = experiment: solubility change mitosis vs G1/S (difference of NP-40 vs SDS log2 ratios) (log2 ratio difference); higher = more soluble in mitosis
# HeLa Kyoto [4] = experiment: melting temperature (median over replicates), in situ; higher = more thermally stable
# [5] = cell cycle stage: early G1 (4.5 h after nocodazole release)
# 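For melting temperature (median over replicates), in situ in this document: HeLa Kyoto cells synchronized by double thymidine or nocodazole block, proteins quantified by TMT10plex mass spectrometry, three independent biological replicates.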
# 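For solubility change mitosis vs G1/S (difference of NP-40 vs SDS log2 ratios) in this document: synchronized HeLa Kyoto cells (double thymidine block for G1/S, nocodazole release for mitosis), protein amounts in NP-40 versus SDS lysates quantified by mass spectrometry, three biological replicates.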
# 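For solubility in G1/S (NP-40 vs SDS abundance) in this document: HeLa Kyoto cells arrested at G1/S by double thymidine block, proteins quantified by TMT10plex mass spectrometry in mild NP-40 versus SDS extracts, three biological replicates.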
# 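For thermal stability score vs G1/S (z-score of summed log2 fold changes over temperatures) in this document: synchronized HeLa Kyoto cells, proteins quantified by TMT10plex mass spectrometry, three biological replicates, mitosis taken 0.5 h after nocodazole release, G1/S directly after double thymidine block.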
Sequence,thermal stability score (HeLa Kyoto [1]; [5]),thermal stability score (HeLa Kyoto [1]; cell cycle stage: mitosis),solubility in G1/S (log2) (HeLa Kyoto [2]),solubility change mitosis (log2) (HeLa Kyoto [3]),melting temperature (HeLa Kyoto [4]; cell cycle stage: G1/S) [°C],melting temperature (HeLa Kyoto [4]; cell cycle stage: mitosis) [°C]
MAQKPLRLLACGDVEGKFDILFNRVQAIQKKSGNFDLLLCVGNFFGSTQDAEWEEYKTGIKKAPIQTYVLGANNQETVKYFQDADGCELAENITYLGRKGIFTGSSGLQIVYLSGTESLNEPVPGYSFSPKDVSSLRMMLCTTSQFKGVDILLTSPWPKCVGNFGNSSGEVDTKKCGSALVSSLATGLKPRYHFAALEKTYYERLPYRNHIILQENAQHATRFIALANVGNPEKKKYLYAFSIVPMKLMDAAELVKQPPDVTENPYRKSGQEASIGKQILAPVEESACQFFFDLNEKQGRKRSSTGRDSKSSPHPKQPRKPPQPPGPCWFCLASPEVEKHLVVNIGTHCYLALAKGGLSDDHVLILPIGHYQSVVELSAEVVEEVEKYKATLRRFFKSRGKWCVVFERNYKSHHLQLQVIPVPISCSTTDDIKDAFITQAQEQQIELLEIPEHSDIKQIAQPGAAYFYVELDTGEKLFHRIKKNFPLQFGREVLASEAILNVPDKSDWRQCQISKEDEETLARRFRKDFEPYDFTLDD [CWF19L1],0.0624,0.97,0.0176,-0.143,50.4,50.7
MAQQQMTSSQKALMLELKSLQEEPVEGFRITLVDESDLYNWEVAIFGPPNTLYEGGYFKAHIKFPIDYPYSPPTFRFLTKMWHPNIYENGDVCISILHPPVDDPQSGELPSERWNPTQNVRTILLSVISLLNEPNTFSPANVDASVMFRKWRDSKGKDKEYAEIIRKQVSATKAEAEKDGVKVPTTLAEYCIKTKVPSNDNSSDLLYDDLYDDDIDDEDEEEEDADCYDDDDSGNEES [UBE2R2],-2.34,-0.967,0.302,0.134,51.9,52.9
MAQVLRGTVTDFPGFDERADAETLRKAMKGLGTDEESILTLLTSRSNAQRQEISAAFKTLFGRDLLDDLKSELTGKFEKLIVALMKPSRLYDAYELKHALKGAGTNEKVLTEIIASRTPEELRAIKQVYEEEYGSSLEDDVVGDTSGYYQRMLVVLLQANRDPDAGIDEAQVEQDAQALFQAGELKWGTDEEKFITIFGTRSVSHLRKVFDKYMTISGFQIEETIDRETSGNLEQLLLAVVKSIRSIPAYLAETLYYAMKGAGTDDHTLIRVMVSRSEIDLFNIRKEFRKNFATSLYSMIKGDTSGDYKKALLLLCGEDD [ANXA5],5.64,5.5,0.363,0.0486,49.4,49.4
MARAGPAWLLLAIWVVLPSWLSSAKVSSLIERISDPKDLKKLLRTRNNVLVLYSKSEVAAENHLRLLSTVAQAVKGQGTICWVDCGDAESRKLCKKMKVDLSPKDKKVELFHYQDGAFHTEYNRAVTFKSIVAFLKDPKGPPLWEEDPGAKDVVHLDSEKDFRRLLKKEEKPLLIMFYAPWCSMCKRMMPHFQKAATQLRGHAVLAGMNVYSSEFENIKEEYSVRGFPTICYFEKGRFLFQYDNYGSTAEDIVEWLKNPQPPQPQVPETPWADEGGSVYHLTDEDFDQFVKEHSSVLVMFHAPWCGHCKKMKPEFEKAAEALHGEADSSGVLAAVDATVNKALAERFHISEFPTLKYFKNGEKYAVPVLRTKKKFLEWMQNPEAPPPPEPTWEEQQTSVLHLVGDNFRETLKKKKHTLVMFYAPWCPHCKKVIPHFTATADAFKDDRKIACAAVDCVKDKNQDLCQQEAVKGYPTFHYYHYGKFAEKYDSDRTELGFTNYIRALREGDHERLGKKKEEL [PDIA5],2.7,2.84,-0.136,-0.0327,53.8,54.5
MAREKEMQEFTRSFFRGRPDLSTLTHSIVRRRYLAHSGRSHLEPEEKQALKRLVEEELLKMQVDEAASREDKLDLTKKGKRPPTPCSDPERKRFRFNSESESGSEASSPDYFGPPAKNGVAAEVSPAKEENPRRASKAVEESSDEERQRDLPAQRGEESSEEEEKGYKGKTRKKPVVKKQAPGKASVSRKQAREESEESEAEPVQRTAKKVEGNKGTKSLKESEQESEEEILAQKKEQREEEVEEEEKEEDEEKGDWKPRTRSNGRRKSAREERSCKQKSQAKRLLGDSDSEEEQKEAASSGDDSGRDREPPVQRKSEDRTQLKGGKRLSGSSEDEEDSGKGEPTAKGSRKMARLGSTSGEESDLEREVSDSEAGGGPQGERKNRSSKKSSRKGRTRSSSSSSDGSPEAKGGKAGSGRRGEDHPAVMRLKRYIRACGAHRNYKKLLGSCCSHKERLSILRAELEALGMKGTPSLGKCRALKEQREEAAEVASLDVANIISGSGRPRRRTAWNPLGEAAPPGELYRRTLDSDEERPRPAPPDWSHMRGIISSDGESN [HIRIP3],0.379,0.978,0.0105,0.398,53,52.5
MARELRALLLWGRRLRPLLRAPALAAVPGGKPILCPRRTTAQLGPRRNPAWSLQAGRLFSTQTAEDKEEPLHSIISSTESVQGSTSKHEFQAETKKLLDIVARSLYSEKEVFIRELISNASDALEKLRHKLVSDGQALPEMEIHLQTNAEKGTITIQDTGIGMTQEELVSNLGTIARSGSKAFLDALQNQAEASSKIIGQFGVGFYSAFMVADRVEVYSRSAAPGSLGYQWLSDGSGVFEIAEASGVRTGTKIIIHLKSDCKEFSSEARVRDVVTKYSNFVSFPLYLNGRRMNTLQAIWMMDPKDVREWQHEEFYRYVAQAHDKPRYTLHYKTDAPLNIRSIFYVPDMKPSMFDVSRELGSSVALYSRKVLIQTKATDILPKWLRFIRGVVDSEDIPLNLSRELLQESALIRKLRDVLQQRLIKFFIDQSKKDAEKYAKFFEDYGLFMREGIVTATEQEVKEDIAKLLRYESSALPSGQLTSLSEYASRMRAGTRNIYYLCAPNRHLAEHSPYYEAMKKKDTEVLFCFEQFDELTLLHLREFDKKKLISVETDIVVDHYKEEKFEDRSPAAECLSEKETEELMAWMRNVLGSRVTNVKVTLRLDTHPAMVTVLEMGAARHFLRMQQLAKTQEERAQLLQPTLEINPRHALIKKLNQLRASEPGLAQLLVDQIYENAMIAAGLVDDPRAMVGRLNELLVKALERH [TRAP1],1.66,-0.668,-0.0668,-0.149,52.8,52.7
MARGSAVAWAALGPLLWGCALGLQGGMLYPQESPSRECKELDGLWSFRADFSDNRRRGFEEQWYRRPLWESGPTVDMPVPSSFNDISQDWRLRHFVGWVWYEREVILPERWTQDLRTRVVLRIGSAHSYAIVWVNGVDTLEHEGGYLPFEADISNLVQVGPLPSRLRITIAINNTLTPTTLPPGTIQYLTDTSKYPKGYFVQNTYFDFFNYAGLQRSVLLYTTPTTYIDDITVTTSVEQDSGLVNYQISVKGSNLFKLEVRLLDAENKVVANGTGTQGQLKVPGVSLWWPYLMHERPAYLYSLEVQLTAQTSLGPVSDFYTLPVGIRTVAVTKSQFLINGKPFYFHGVNKHEDADIRGKGFDWPLLVKDFNLLRWLGANAFRTSHYPYAEEVMQMCDRYGIVVIDECPGVGLALPQFFNNVSLHHHMQVMEEVVRRDKNHPAVVMWSVANEPASHLESAGYYLKMVIAHTKSLDPSRPVTFVSNSNYAADKGAPYVDVICLNSYYSWYHDYGHLELIQLQLATQFENWYKKYQKPIIQSEYGAETIAGFHQDPPLMFTEEYQKSLLEQYHLGLDQKRRKYVVGELIWNFADFMTEQSPTRVLGNKKGIFTRQRQPKSAAFLLRERYWKIANETRYPHSVAKSQCLENSLFT [GUSB],-0.942,-0.838,0.259,-0.164,56.4,58
MARSPGRAYALLLLLICFNVGSGLHLQVLSTRNENKLLPKHPHLVRQKRAWITAPVALREGEDLSKKNPIAKIHSDLAEERGLKITYKYTGKGITEPPFGIFVFNKDTGELNVTSILDREETPFFLLTGYALDARGNNVEKPLELRIKVLDINDNEPVFTQDVFVGSVEELSAAHTLVMKINATDADEPNTLNSKISYRIVSLEPAYPPVFYLNKDTGEIYTTSVTLDREEHSSYTLTVEARDGNGEVTDKPVKQAQVQIRILDVNDNIPVVENKVLEGMVEENQVNVEVTRIKVFDADEIGSDNWLANFTFASGNEGGYFHIETDAQTNEGIVTLIKEVDYEEMKNLDFSVIVANKAAFHKSIRSKYKPTPIPIKVKVKNVKEGIHFKSSVISIYVSESMDRSSKGQIIGNFQAFDEDTGLPAHARYVKLEDRDNWISVDSVTSEIKLAKLPDFESRYVQNGTYTVKIVAISEDYPRKTITGTVLINVEDINDNCPTLIEPVQTICHDAEYVNVTAEDLDGHPNSGPFSFSVIDKPPGMAEKWKIARQESTSVLLQQSEKKLGRSEIQFLISDNQGFSCPEKQVLTLTVCECLHGSGCREAQHDSYVGLGPAAIALMILAFLLLLLVPLLLLMCHCGKGAKGFTPIPGTIEMLHPWNNEGAPPEDKVVPSFLPVDQGGSLVGRNGVGGMAKEATMKGSSSASIVKGQHEMSEMDGRWEEHRSLLSGRATQFTGATGAIMTTETTKTARATGASRDMAGAQAAAVALNEEFLRNYFTDKAASYTEEDENHTAKDCLLVYSQEETESLNASIGCCSFIEGELDDRFLDDLGLKFKTLAEVCLGQKIDINKEIEQRQKPATETSMNTASHSLCEQTMVNSENTYSSGSSFPVPKSLQEANAEKVTQEIVTERSVSSRQAQKVATPLPDPMASRNVIATETSYVTGSTMPPTTVILGPSQPQSLIVTERVYAPASTLVDQPYANEGTVVVTERVIQPHGGGSNPLEGTQHLQDVPYVMVRERESFLAPSSGVQPTLAMPNIAVGQNVTVTERVLAPASTLQSSYQIPTENSMTARNTTVSGAGVPGPLPDFGLEESGHSNSTITTSSTRVTKHSTVQHSYS [DSG2],-1.15,-1.27,-0.504,-0.164,55.1,56
MARSVRVLVDMDGVLADFEAGLLRGFRRRFPEEPHVPLEQRRGFLAREQYRALRPDLADKVASVYEAPGFFLDLEPIPGALDAVREMNDLPDTQVFICTSPLLKYHHCVGEKYRWVEQHLGPQFVERIILTRDKTVVLGDLLIDDKDTVRGQEETPSWEHILFTCCHNRHLVLPPTRRRLLSWSDNWREILDSKRGAAQRE [NT5C],-0.241,-1.24,0.0484,-0.172,55.9,57
MARVAWGLLWLLLGSAGAQYEKYSFRGFPPEDLMPLAAAYGHALEQYEGESWRESARYLEAALRLHRLLRDSEAFCHANCSGPAPAAKPDPDGGRADEWACELRLFGRVLERAACLRRCKRTLPAFQVPYPPRQLLRDFQSRLPYQYLHYALFKANRLEKAVAAAYTFLQRNPKHELTAKYLNYYQGMLDVADESLTDLEAQPYEAVFLRAVKLYNSGDFRSSTEDMERALSEYLAVFARCLAGCEGAHEQVDFKDFYPAIADLFAESLQCKVDCEANLTPNVGGYFVDKFVATMYHYLQFAYYKLNDVRQAARSAASYMLFDPKDSVMQQNLVYYRFHRARWGLEEEDFQPREEAMLYHNQTAELRELLEFTHMYLQSDDEMELEETEPPLEPEDALSDAEFEGEGDYEEGMYADWWQEPDAKGDEAEAEPEPELA [P3H4],0.153,0.25,-0.293,-0.0349,53.2,53.6
